In patent publication US20050143472A1, “Novel treatment for pathologies associated with oxidative damage” (priority 2002, published 2005) one finds kcat and kcat/Km data, which are given here for 1 protein.

Substrate in this data set: NCCCNCCCCNCCCN
Briefly: purified protein, by the assay type. The following applies: other: apparent value, air-saturated 50 mM KH2PO4/KOH buffer pH 7.6, [O2] 237 μM.

B1: mPAO (Mus musculus) (protein)
chain: MAFPGPRVLVVGSGIAGLGAAQKLCSHRAAPHLRVLEATASAGGRIRSERCFGGVVELGAHWIHGPSQDNPVFQLAAEFGLLGEKELSEENQLVDTGGHVALPSMIWSSSGTSVSLELMTEMARLFYGLIERTREFLNESETPMASVGEFLKKEISQQVASWTEDDEDTRKRKLAILNTFFNIKCCVSGTHSMDLVALAPFGEYTVLPGLDCILAGGYQGLTDRILASLPKDTVAFDKPVKTIHWNGSFQEAAFPGETFPVLVECEDGARLPAHHVIVTVPLGFSKEHQDTFFEPPLPAKKAEAIKKLGFGTNNKIFLEFEEPFWEPDCQFIQVVWEDTSPLQDTALSLQDTWFKKLIGFLVQPSFESSHVLCGFIAGLESEFMETLSDEEVLLSLTQVLRRVTGNPQLPAAKSVLSSRWHSAPYTRGSYSYVAVGSTGDDLDLMAQPLPADGTGTQLQVLFAGEATHRTFYSTTHGALLSGWREADRLIGLWDSQAEQSRPRL
What is called kcat is the number of substrate molecules converted per active site and unit of time at saturation. In general, kcat/Km refers to the turnover number divided by the Michaelis constant. On to B1, for which the kcat stood at 0.175 s⁻¹ and the kcat/Km is 247 M⁻¹ s⁻¹.
